Data taken from the DeepSol protein solubility set.

Assay: soluble on expression in E. coli; label from the status in PepcDB or PDB records
With “LVGSRREIAARNLELCFPEKSPAERERLLKENFASSGIAFFEMAMSWWWPKARLARLAHIEGLEHLREAQAQGEGVILMALHFTTLEIGAALLGQVHTIDGMYREHDNPVFDYVQRRGRERHNLDATAIEREDVRSMLKVLRGGRAIWYAPDQDYGAKQSLFVPLFGIPAATVTATTKFARLGRARVLPFTQSRLADGSGYRLTIHPPLEDFPGESEEADCLRINQWVERCVRQQPEQYLWAHRRFKTRPPGEAK” the “soluble on expression in E. coli” value was “not soluble”. For “MSDMSEQSVEIASSQLGTKDFWDQRYELELKNFKQHGDEGEVWFGTSSETRIVKYLIDSKTGKDAKILDLGCGNGSVLRKLRSKGFQSLKGVDYCQKAVDLSAAASKAEREEEEDEELVDIEFEQLDITTPPADFFSSKFDVILDKGTWDAMSLSDEREARLKAYLGFLDNGLSAGGRFVIFSCNFTFDEMCSQFGGGGGSTSLEIVCEVPASHSFSFGGKQGVTSTGAVFRKKTL”, the “soluble on expression in E. coli” value was “not soluble”. In the case of “MAHHHHHHMLCAGKGRVEATQDVARQFLRKCVERLEKNEKDMAVKFDITMTMVSLRCADQCCDLLKPGASYEKMMMGSSPVYGPCLLGLETKVHKTASECVSSFDAGLKNAKEDKEIVAAFFVLKTIKKTGAEEEVHLSSLCIALCGETVAHKTDIRDKAASSPHRLFRYAVDGACVTVSGLWIVSKDVDAREGLEVERKMREVKNQPPRSGNVKRFVDYTYKEIMRQKEKLESATGSEKKTREAQIERMEEMVKDAKELLTSPENTRPKGYSMGR”, the “soluble on expression in E. coli” value is reported as “not soluble”. With “MAHHHHHHMRVLSGVELEAVNRVVEHLRCHPEDLHRNEFRELREYMASLGASIPPPPDTPDVSGVRKEANSDDEEEYVSEPDSQRCALEPVSDDDITAYDGTDPTPEDEERAMGLKAQAAELAADGDFDKAIELMGQALRIVPGKAMYWAQRASYFLKCTQPGAALQDANRALDLNPENVRALRVRGTVNRRLGKWEEALKDLSEAQAVDYDEGIDEILRFVQKRTNDRRQFQQRKKEAQRLRQEALRRQREHELREEEMKREQQQQRDQQQSGAGDFPGGAGGFPGGFPGGAGGGGMQSFMESLFQDQELAEAMKDPEVAAKLATLRSNPMAALQMMGDPKVGPLIQKMMSKAMGGSSPGSSPFGAGASAGATSHADAHHSDELD” the “soluble on expression in E. coli” value was “soluble”. In the case of “MSLYVVISPTGRTDGNIPARGYAGPSGRLDVIARAYNAILEPNATLAALLMGGPLPPRLLIAPLSCKDIVRSERSFMIEASRALRGRRSCFTVNDEGVEALASLLRRFKPRILLAEKGGDISSHWGEMCSSSPTFIAGSHLDPPHGLIKHLERSLGGFLRVSVGPLSLHTDHVFLLVSALRLPMHATSIEHH”, the “soluble on expression in E. coli” value is reported as “not soluble”. With “MSSHTATKYDVFLSFRGHDTRHNFISFLYKELVRRSIRTFKDDKELENGQRFSPELKSPIEVSRFAVVVVSENYAASSWCLDELVTIMDFEKKGSITVMPIFYGVEPNHVRWQTGVLAEQFKKHASREDPEKVLKWRQALTNFAQLSGDCSGDDDSKLVDKIANEISNKKTIYATI” the “soluble on expression in E. coli” value was “soluble”. In the case of “MVHYKLTYFNGRGAGECARQVFALADQKYEDVRLTQETFVPLKATFPFGQVPVLEVDGQQLAQSQAICRYLAKTFGFAGATPFESALIDSLADAYTDYRAEMKTYYYTALGFMTGDVDKPKTDVLLPARTKFLGFITKFLKKNSSGFLVGDKISWVDLLVAEHVADMTNRVPEYIEGFPEVKAHMERIQQTPRIKKWIETRPETPF”, the “soluble on expression in E. coli” value is reported as “soluble”. With “MGSDKIHHHHHHMRNINYFFAGSLLLLSGCQLIPNGDIPADDETNINPTLEVVSPTESDTREQVVEARDLWQRMQEGMHWEKPNEAYVAPFRQKLLANPRHLEQVFSRAEPFLYLIVDELERRGLPLELALLPAIESAFDADAISHASASGLWQLTPPMARYFGLKMNWWYDGRNDVVASTRAAADFLEYLYDRTGNNWHYAIAAYNSGEGRVLSAVRHNEKAGKPTDIWALKLPRETRNYVPNLLALADVVKHADKYGVSLPRIKNEPVVDVVEIGSQIELALAAELAGLSVSELKSLNPGFKQWATAPKGPHRLVVPVSNAPDFVVALAQTPQEQRVQWARYQIKRGDSLSVIARQFGTTPQVLKQVNQMKNNQLIAGKELVVPANGRTNASAQLASATPKQSYKVKSGDSLWKIAQAHGISVNDLKKWNSLGSKAIIRQGQLLTVWPGSKAVANTRSTTYQVKRGDSLSLIAQKFKVKISELMSWNKLSSSALQPGQTLTVMLQ” the “soluble on expression in E. coli” value was “not soluble”. For “MKFAIFVNTTREKALELARELTAWLDARSIDYVFDPQSAKALGCGKWEEKADLSQHCDAFVALGGDGTLLLASHYSRSKPVVGINVGDLGFLTEFSPDEMWVAMDHLVSGNYSIHTRSQLEATLESGESLTSLNDVIFEKGSAARRLPAFTILLDDEMLGSYRADGIIIATSTGSTAYSMSAGGPIIAPKSNVFVITPICPHMLTVRPIVISDDKTIKISVDSQSGEFPLKMDGIQKKLLAPGEVVTVKKSPHHINLVANEKRNYCEILRKKLLWSHEHPTGELEHHHHHH”, the “soluble on expression in E. coli” value was “not soluble”. In the case of “GSSGSSGMKQATRKPTTPGDILLYEYLEPLDLKINELAELLHVHRNSVSALINNNRKLTTEMAFRLAKVFDTTVDFWLNLQAAVDLWEVENNMRTQEELGRIETVAEYLARREERAKKVA”, the “soluble on expression in E. coli” value is reported as “soluble”. In the case of “MMRVKFNGKELDTDFKTSLEFFENISKNENDVWIINGFATKENIALNENDELFCIEKNTLPPKDALDAMMRARHTPKLHDKLKNGRVAVCGLGGLGSHIAINLARSGVGYLKLIDFDVIEPSNLNRQAYRVSDLGKFKTEALKEQISEINPYISVEICTLKIDEDNLESLFKDIDIVCEAFDSAIAKAMIAQNFHRFYKDGILICASGLAGYGDSNSIQTRKIAKNFYVCGDLVNGAKLGNGLMAPRVNICAGHQSNLVLELLANKELEHHHHHH”, the “soluble on expression in E. coli” value is reported as “soluble”. In the case of “MKAVIFIMDGLGDRPNKDGNTPLKEAKTPVMDKMAKDGICGLMNAVDVGVRPGSDTAHLAILGYDPYTTYTGRGPFEACGVGVTVKPGDIAFRCNFSSVNENFIVTDRRAGRIEDTSELEKELDGLKIDDIDIIFKESGGYRAALVLRGPGLSDKISDADPKKEGKRVKEIHPLDNSKEAKKTAEIVNKLLKIAYEKLDKHPVNEERRKQNLPVANMIVPRGVGQVPEIMQFSEKTGLKGACIAGTGLIKGIAKMVGLDVIDVEGCDGTPNSDLMAKACAIVETLKDYDFILVNVKGADEAGHDGNYELKKEIIEKIDEMLDYITKNIDKDEVYIAMSGDHSTPIEEMDHSADPLPILIWGKSVRVDDVEKFDEFSTYKGGLNWIKGTNIMPILMDLMSIAKKYGA”, the “soluble on expression in E. coli” value is reported as “not soluble”. For “GMSARDVFHEVVKTALKKDGWQITDDPLTISVGGVNLSIDLAAQKLIAAERQGQKIAVEVKSFLKQSSAISEFHTALGQFINYRGALRKVEPDRVLYLAVPLTTYKTFFQLDFPKEIIIENQVKMLVYDVEQEVIFQWIN”, the “soluble on expression in E. coli” value was “soluble”. With “MALSDVKVRSAKPEAKAYKLTDGEGMVLLVHPNGSKYWRLRYRFGGKEKMLALGKYPEVSLADARARRDEARKLLANGVDPSENKKAVKVEQEQEAITFEVVARDWHASNQKWSASHSARVLKSLEDNLFTAIGKRNIAELKTRDLLVPIKAVESSGRLEVAARLQQRTTAIMRFAVQSGLIDYNPAQEIAGAVATAKRQHRAALELNRIPELLHRIDHYSGRPLTRLAVELTLLVFIRSSELRFARWSEIDFETAMWTIPGEREQLEGVKHSQRGSKMRTPHLVPLSRQALSILEKIKSMSGNRELIFVGDHDPRKPMSENTVNKALRVMGYDTKVEVCGHGFRTMACSSLIESGLWSRDAVERQMSHQERSSVRAAYIHKAEHLGERRLMFEVVNKNWPPS” the “soluble on expression in E. coli” value was “not soluble”. In the case of “MSLATTHLDVCAVVPAAGFGRRMQTECPKQYLSIGNQTILEHSVHALLAHPRVKRVVIAISPGDSRFAQLPLANHPQITVVDGGDERADSVLAGLKAAGDAQWVLVHDAARPCLHQDDLARLLALSETSRTGGILAAPVRDTMKRAEPGKNAIAHTVDRNGLWHALTPQFFPRELLHDCLTRALNEGATITDEASALEYCGFHPQLVEGRADNIKVTRPEDLALAEFYLTRTIHQENT”, the “soluble on expression in E. coli” value is reported as “soluble”. With “MAESDWDTVTVLRKKGPTAAQAKSKQAILAAQRRGEDVETSKKWAAGQNKQHSITKNTAKLDRETEELHHDRVTLEVGKVIQQGRQSKGLTQKDLATKINEKPQVIADYESGRAIPNNQVLGKIERAIGLKLRGKDIGKPIEKGPRAK” the “soluble on expression in E. coli” value was “not soluble”. For “MDWRHKAVCRDEDPELFFPVGNSGPALAQIADAKLVCNRCPVTTECLSWALNTGQDSGVWGGMSEDERRALKRRNARTKARTGV”, the “soluble on expression in E. coli” value was “not soluble”. With “MKLQSYLMGEWREGQGEGVPVRDASTGEVLARVTAEGLPVKEAVAWGREVGGKALLALGFQERGRRLRALAQYLSERKEALYRLYATTGGTRRDAWYDVDGGIGVLYAYSSLARNLPEGNLLPEDDFLPLSKDLSFQGRHVLAPKGGITVQINAFNFPVWGLLEKFAPAFLAGVPTLAKPATPTAHVAEALVRTMLESGLLPEGSLQLLVGSVGDLFDALDHRDSVFFTGSKATADRLRRHPAFLERGALFNAEADSLNPAILGEKATEEELSRLAQEIAQELVIKTGQRCTAIRRVFAPRERLKALLEATRKRLEALRLGDPREEGVDLGPLASLEQKAEVEKAVAALLEAGARVYWRHPGREDGAFFPPTLLLAEDPWPGALHQVEPFGPVATFFPYGSREEAARLAALGGGSLVATLATSDPEEARFYLLALAPYVGRLHLLNARTAASSTGHGSPLPRLLHGGPGRAGGGEELGGLLSVRRHLGRVALQADPWLLSALTGEYAKGAEKPAEVHPFRKAYEDLEVGETLTTHRRTVTEADIALFSALSWDHFYAHTDEIAARESLFGKRVAHGYFVLSAAAGLFVDPAPGPVLANYGLEGLRFLEPVGAGDTLQVRLTVKRKRPRDEKTGVVEWAAEVVNQEGKPVATYTVLTLVARKGALAKGS” the “soluble on expression in E. coli” value was “soluble”. For “MSLKQYETIILHRHVRPDPDAYGSQMGLAEIIRASFPEKKVYSVGNDEKSLQFLGIVDEITDEIYKDALVIVCDTANQERISDGRFNLGKALIKIDHHPNDDAYGDLLWVDTTASSCSEMIVAFWEMFSDELILNETAARLLYAGIVGDTGRFLYPSTTEETLRLSAHLVTFPFDRPALYRELYELPKNTVKLSGYILQNFVMDENGAATVYLSDTLLNEFEVDPRDASALVSCIENVKGIKAWIMFIQEGPVFRARLRSKGPVINELAKEYGGGGHPLASGATLHNEEEIKEMTAKLQRIEGHHHHHH”, the “soluble on expression in E. coli” value was “not soluble”. With “MAHHHHHHMSDTRDVAQPRRGSFASRKARGETGGSKSSSSSSKNKEHSYDARRYHQNANTHGIHALRTFDCPVCDSKNTIRVTLNPRLGEGTVSCTYCCSLRPAPPDLPYPSVQRFVPSLENRADVFFRFNEQYAALLRQHKSERVGESVDPSSCLATVDNTRKRANKDDGESGGRARGPRGESRDEDGLFGDCALHMDTGLFDNAVDQHVTGTLAMLGSDDDGGSNTVADADPGNPKGVSTPSPPRPDGADMPESDFMNVAVIAGVDEAFAAHAADGVDGMGEADAEEVDVAAFFADSD” the “soluble on expression in E. coli” value was “not soluble”. In the case of “MGSDKIHHHHHHMTHDLLDLLRQWHQSPDEAWVLAVLTQVQGSSYRKPGAMMLFHPMGKSYGMLSGGCLEADLRRHAQQVIQSQCVAQVEYDASDESDSSYQLGCGGIVNIMLVTVTKANDYLGFNPLLAALARGDSVEYELSLPANASPCQQASAKLSIVPLSDNLTQAQLKGAHKAVTAYKHEVLTMRLAPPIALGIFGAGLDAQPVAAMAQQLGWQVSVFDERSAYGRLYDFPSVKVVKGPFDAIEPAILKRLDAAIVMSHNLNLDAKALSLLASLSQPHSHNNLAYLALLGPPQRRDRVLRIAGLELADIKCFFSAPAGLALGGELPSSVALSIVSQCHGVLHGSAIIALDEVMGCP”, the “soluble on expression in E. coli” value is reported as “not soluble”.
